Here are results for one molecule from PMC3828522.

In data set [1] the target is Pho full-length;Sfmbt 4MBT wild type (Drosophila melanogaster;Drosophila …, UniProt Q8ST83;Q9VK33 1-520;531-980, |). In words: EMSA supershift. For orientation: Mobility shift assays separate free from complexed probe on a gel.
For data set [2], the target named is Pho full-length (Drosophila melanogaster, UniProt Q8ST83 1-520). Description: EMSA.
The target in data set [3] is T1, Sfmbt 4MBT wild type (Drosophila melanogaster, UniProt Q9VK33 531-980).
T1 sequence: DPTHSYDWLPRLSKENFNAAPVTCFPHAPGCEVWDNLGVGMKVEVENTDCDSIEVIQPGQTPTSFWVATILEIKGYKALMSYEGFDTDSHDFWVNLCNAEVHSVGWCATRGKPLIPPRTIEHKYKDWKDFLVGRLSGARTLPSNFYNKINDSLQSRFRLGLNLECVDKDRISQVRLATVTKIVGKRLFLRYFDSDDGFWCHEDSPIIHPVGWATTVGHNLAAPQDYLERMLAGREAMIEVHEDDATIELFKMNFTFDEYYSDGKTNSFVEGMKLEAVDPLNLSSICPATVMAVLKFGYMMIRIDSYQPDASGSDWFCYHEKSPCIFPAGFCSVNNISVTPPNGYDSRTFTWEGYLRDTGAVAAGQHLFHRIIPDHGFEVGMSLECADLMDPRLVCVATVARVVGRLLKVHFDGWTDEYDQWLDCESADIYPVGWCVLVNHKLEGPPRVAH
Description: EMSA.

Sequence of Pho full-length;Sfmbt 4MBT wild type (Q8ST83 whole entry, one chain of several): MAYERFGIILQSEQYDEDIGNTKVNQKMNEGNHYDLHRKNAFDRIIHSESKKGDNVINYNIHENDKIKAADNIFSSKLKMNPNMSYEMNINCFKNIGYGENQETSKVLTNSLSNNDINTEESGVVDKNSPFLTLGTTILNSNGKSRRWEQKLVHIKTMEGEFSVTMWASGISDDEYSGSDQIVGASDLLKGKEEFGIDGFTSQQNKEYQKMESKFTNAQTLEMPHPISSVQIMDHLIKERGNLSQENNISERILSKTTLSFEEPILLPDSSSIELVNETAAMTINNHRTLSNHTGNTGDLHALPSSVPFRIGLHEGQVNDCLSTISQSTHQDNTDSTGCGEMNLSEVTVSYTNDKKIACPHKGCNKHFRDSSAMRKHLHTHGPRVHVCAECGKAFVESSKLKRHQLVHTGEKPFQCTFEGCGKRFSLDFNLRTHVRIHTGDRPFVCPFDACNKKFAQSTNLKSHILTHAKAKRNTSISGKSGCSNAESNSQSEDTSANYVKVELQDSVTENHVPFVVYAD
Sequence of Pho full-length (Q8ST83 whole entry): as the sequence (Q8ST83 whole entry, one chain of several) above

B1: Pho DNA-binding site probe (dsDNA)
DNA 1: CTCCGTCGCCATAACTGTCG
DNA 2: CGACAGTTATGGCGACGGAG
In the case of B1, the binding result is recorded as “binds” in data set [1], “binds” in data set [2] and “no binding” in data set [3].
